The record followed here is patent US20150098900A1 (Genentech, published 2015).

The target of assay [1] is T1, human FcRH5c (full length human FcRH5) (human, UniProt Q96RD9 16-977).
T1 construct: Used on transfected SVT2, 293, EJM and OPM2 cells and endogenously on MOLP-2 cells and CD19+ B cells; also called IRTA2c; huFcRH5
T1 sequence: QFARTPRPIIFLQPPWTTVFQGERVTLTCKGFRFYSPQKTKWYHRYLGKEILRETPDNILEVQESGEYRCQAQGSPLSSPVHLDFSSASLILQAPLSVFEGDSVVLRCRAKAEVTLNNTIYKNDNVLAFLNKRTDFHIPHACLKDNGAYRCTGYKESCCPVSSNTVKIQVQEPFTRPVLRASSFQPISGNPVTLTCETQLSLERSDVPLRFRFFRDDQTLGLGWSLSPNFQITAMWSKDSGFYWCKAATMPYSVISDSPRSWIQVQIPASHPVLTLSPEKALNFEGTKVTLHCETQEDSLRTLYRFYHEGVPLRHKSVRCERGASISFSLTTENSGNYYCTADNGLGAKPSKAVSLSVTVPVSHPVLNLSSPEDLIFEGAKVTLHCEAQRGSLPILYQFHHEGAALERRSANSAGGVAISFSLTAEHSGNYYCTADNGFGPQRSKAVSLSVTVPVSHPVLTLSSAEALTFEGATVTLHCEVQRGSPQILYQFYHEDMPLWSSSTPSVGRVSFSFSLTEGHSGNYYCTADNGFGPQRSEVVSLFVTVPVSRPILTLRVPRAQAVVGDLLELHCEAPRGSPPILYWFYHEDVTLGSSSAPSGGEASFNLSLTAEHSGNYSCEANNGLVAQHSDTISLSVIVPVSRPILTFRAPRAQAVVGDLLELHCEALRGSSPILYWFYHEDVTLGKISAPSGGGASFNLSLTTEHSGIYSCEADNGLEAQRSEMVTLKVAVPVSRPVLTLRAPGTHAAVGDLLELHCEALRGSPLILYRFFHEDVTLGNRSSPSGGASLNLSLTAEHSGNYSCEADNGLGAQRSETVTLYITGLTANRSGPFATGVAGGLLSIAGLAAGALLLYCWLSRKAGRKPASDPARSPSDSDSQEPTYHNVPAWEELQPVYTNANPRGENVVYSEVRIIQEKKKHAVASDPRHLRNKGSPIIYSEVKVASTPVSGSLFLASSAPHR
Nature of the assay: FACS, APC-labelled antibodies on SVT2 cells with full-length human FcRH5. Background: A flow cytometer gives signals particle by particle.

The target in assay [2] is T2, human FcRH2 with N-terminal gD-expression tag on SVT2 cells (human, UniProt Q96LA5 20-508).
T2 construct: whole, on cells; also called SVT2/FcRH2
T2 sequence (looked up): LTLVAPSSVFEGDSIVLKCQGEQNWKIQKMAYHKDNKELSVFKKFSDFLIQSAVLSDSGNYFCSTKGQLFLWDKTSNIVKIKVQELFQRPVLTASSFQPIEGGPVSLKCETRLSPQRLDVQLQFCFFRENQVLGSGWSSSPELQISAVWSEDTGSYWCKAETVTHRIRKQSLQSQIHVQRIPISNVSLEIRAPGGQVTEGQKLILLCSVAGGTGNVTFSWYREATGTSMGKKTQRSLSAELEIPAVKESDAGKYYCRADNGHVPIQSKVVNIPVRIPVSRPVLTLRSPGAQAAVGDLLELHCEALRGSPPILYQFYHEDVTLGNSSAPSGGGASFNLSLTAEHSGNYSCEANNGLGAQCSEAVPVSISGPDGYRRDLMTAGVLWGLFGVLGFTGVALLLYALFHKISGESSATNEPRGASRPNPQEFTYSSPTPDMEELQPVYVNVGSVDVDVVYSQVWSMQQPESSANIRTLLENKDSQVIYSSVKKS
Briefly: FACS, SVT2 cells with gD-tagged FcRH2, subclone supernatants, anti-mouse PE. The source says:
Fc receptor homolog (FcRH) family molecules have a high degree of homology to one another (Miller et al., 2002). The homology is especially high between the membrane proximal domains, which the E11 antibodies target (Miller et al., 2002). To investigate the cross reactivity to family members, FcRH1, FcRH2, FcRH3 and FcRH4 (all including an N-terminal gD-expression tag) were expressed in SVT2 cells and cells were stained with subclone supernatants and goat anti-mouse-PE secondary antibody. Expression of the transfected FcRH was confirmed by a signal from anti-gD antibody in all cell lines. […] Overall, the signals from FcRH3-expressing SVT2 cells were low, including the gD control antibody, indicative of low expression level. Low level of binding to FcRH3-expressing SVT2 cells was detected for 1F4 and 4H8 supernatants (FIG. 6C).

B1: 3B12.1.1 (antibody, IgG2b, V domains shown)
VH: EVQLQQSGPELVKPGASVKISCKTSGYTFTEYTIHWVKQSHGKSLERIGGINPNNDAVSYNQRFRGKATLTVDKSSSTAYMELRSLTSEDSAVYYCAKLGRGYYFDYWGQGTTLTVSSASTKGPSVFPLAP
VL: DIQMTQSPASLSASVGETVTITCRASENIYSNLAWYQLKQGKSPQLLVYGAANLAEGVPSRISGSGSGTQYSLKINSLQSEDFGTYYCQHFWGIPWTFGGGTKLEIKRTVAA
notes: parent 3B12 and subclone 3B12.1 treated as the same antibody; also called 3B12.1.mIgG2b
Take B1: the binding result in assay [1] is “binds”; in assay [2] it was “no binding”.
